Laboratory results published in publication PMC9019814.

Columns and labels:
alcohol dehydrogenase = alcohol dehydrogenase (UniProt P00330)
citrate synthase = citrate synthase (UniProt P00889)
[1] = biological target: βB2-crystallin (calf (endogenous in calf lenses)) (UniProt P02522)
Sequence of βB2-crystallin (calf (endogenous in calf lenses)) (P02522 whole entry): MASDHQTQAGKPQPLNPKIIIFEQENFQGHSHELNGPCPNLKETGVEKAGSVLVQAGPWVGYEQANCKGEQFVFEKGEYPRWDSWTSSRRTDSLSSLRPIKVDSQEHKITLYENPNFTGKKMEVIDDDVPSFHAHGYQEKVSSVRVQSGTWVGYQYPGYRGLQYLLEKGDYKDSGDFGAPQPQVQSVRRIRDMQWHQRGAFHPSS

Sequence of human wild-type αA-crystallin (P02489 whole entry): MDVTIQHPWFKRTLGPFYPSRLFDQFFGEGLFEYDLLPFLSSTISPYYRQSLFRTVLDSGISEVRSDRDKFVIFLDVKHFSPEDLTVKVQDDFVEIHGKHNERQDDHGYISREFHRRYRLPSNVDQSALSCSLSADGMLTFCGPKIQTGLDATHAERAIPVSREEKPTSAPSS
Sequence of citrate synthase (P00889 28-464): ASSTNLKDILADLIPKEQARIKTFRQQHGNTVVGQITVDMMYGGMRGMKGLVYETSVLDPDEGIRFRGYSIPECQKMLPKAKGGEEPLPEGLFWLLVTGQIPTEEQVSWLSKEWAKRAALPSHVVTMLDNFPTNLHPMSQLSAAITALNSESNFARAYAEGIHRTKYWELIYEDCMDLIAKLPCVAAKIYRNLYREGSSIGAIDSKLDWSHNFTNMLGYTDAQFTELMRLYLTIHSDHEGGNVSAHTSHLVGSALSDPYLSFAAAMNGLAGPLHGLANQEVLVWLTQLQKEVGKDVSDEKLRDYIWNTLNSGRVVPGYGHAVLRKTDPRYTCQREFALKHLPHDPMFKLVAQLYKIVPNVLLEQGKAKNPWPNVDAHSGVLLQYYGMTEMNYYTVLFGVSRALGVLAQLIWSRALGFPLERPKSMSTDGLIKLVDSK
Sequence of alcohol dehydrogenase (P00330 whole entry): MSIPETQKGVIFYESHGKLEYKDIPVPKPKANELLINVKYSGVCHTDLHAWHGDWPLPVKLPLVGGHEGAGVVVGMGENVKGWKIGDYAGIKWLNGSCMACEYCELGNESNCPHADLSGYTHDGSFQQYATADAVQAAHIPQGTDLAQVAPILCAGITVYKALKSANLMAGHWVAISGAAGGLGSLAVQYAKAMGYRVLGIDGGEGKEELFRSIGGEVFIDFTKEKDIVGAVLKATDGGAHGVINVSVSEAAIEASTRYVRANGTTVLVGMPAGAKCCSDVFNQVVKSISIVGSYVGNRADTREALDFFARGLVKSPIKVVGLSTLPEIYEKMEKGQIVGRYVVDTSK

human wild-type αA-crystallin (from UniProt P02489 1-173) (natural protein)
EC50 of chaperone protein for suppression of EDTA-induced aggregation of ADH (250 µg in 1 ml) at 37°C, scattering at 360 nm at 60 min (alcohol dehydrogenase): 45 µg | amount of chaperone protein for fifty percent protection from thermal aggregation of CS (75 µg in 1 ml) at 43°C, scattering at 360 nm at 60 min (citrate synthase): 22 µg | amount of chaperone protein that suppresses the aggregation of βB2-crystallin (250 µg in 1 ml) at 37°C by 50%, scattering at 360 nm at 60 min [1]: 30 µg
